Patent publication US20240299596A1, “METHODS AND MATERIALS FOR COMBINING BIOLOGICS WITH MULTIPLE CHELATORS” (priority 2021, published 2024)

Experiments:
[1] = Stability of ^64Cu-Conjugate 2 over time by TLC; assay type: physicochemical; settings: silica gel, 0.1M sodium citrate
Method: The Conjugate-1 was radiolabeled with Cu-64 using [^64Cu]CuCl2 produced from cyclotron and formulated in 0.1M hydrochloric acid. Different amounts (50 μg, 100 μg) of Conjugate-1 were used and the pH was adjusted to 5.0 using 0.1M sodium acetate after addition of [^64Cu]CuCl2. The resultant reaction mixture was stirred at room temperature for different durations as 10 minutes, 20 minutes, 30 minutes, and 40 minutes to optimize radiolabeling yield with reaction time. The progress and yield of the reactions were monitored by radioactive thin layer chromatography (r-TLC) using iTLC (silica gel coated on paper, Agilent Technologies Inc., Santa Clara, CA) and 0.1M sodium citrate as a mobile phase. In this r-TLC condition, unconjugated (Free)^64Cu moves to the solvent front of the r-TLC and radiolabeled ^64Cu-Conjugate-1 stays at the origin of the r-TLC plate. Based on our tested radiolabeling condition, the reaction achieved >99% yield radiolabeling in 10 minutes and at all other time points at pH 5.0 using sodium acetate as a reaction buffer via stirring at room temperature. Formation of radiolabeled ^64Cu-Conjugate-1 was also confirmed by radio HPLC.
The TLC was performed with a silica gel solid phase and 0.1M sodium citrate mobile phase.
The stability of the ^64Cu-Conjugate 2 was also analyzed by TLC using the same TLC method as the ^64Cu-Conjugate 1 at various time points. The time points included: 40 minutes (Table 31 and FIG. 26), 2 hours (Table 32 and FIG. 27), 4 hours (Table 33 and FIG. 28), 8 hours (Table 34 and FIG. 29).

[2] = Stability of ^64Cu-Conjugate 2 over time by HPLC; assay type: physicochemical
Method: The method used a Schmadzu HPLC system, which was equipped with dual UV and radioactivity detectors. […] Conjugate 2 was tested with varying concentrations (Table 18A below). […] For analysis, the compound was dissolved in water and a calibration curve was prepared to estimate the specific activity of the synthesized compound. Depending upon the chemical nature of the compound a different retention time was observed.
The stability of the ^64Cu-Conjugate 2 was tested using the same HPLC method as the Conjugate 2 at various time points. The time points included: 40 minutes (Tables 23-24 and FIG. 22), 2 hours (Tables 25-26 and FIG. 23), 4 hours (Tables 27-28 and FIG. 24), and 8 hours (Tables 29-30 and FIG. 25).

[3] = Micro PET imaging and ex-vivo biodistribution (SUV) in normal nude mice; parameters: species or system normal nude mice (strain: 002019, NU/J); settings: mouse
Text: in accordance with Loening AM and Gambhir SS. […] Mol Imaging 2003; 2:131-7.

in vitro = in vitro ADME, mouse
Method: The stability of the ^64Cu-Conjugate 2 was tested in mouse serum and human serum at 37° C. using the Rad-iTLC method. Approximately 1.0 mL of mouse serum was extracted from blood of the mice and ˜1.0 mL of human serum was extracted from blood obtained from the Mayo Clinic's blood bank to measure the stability of radiolabeled ^64Cu-Conjugate 2. Obtained mouse and human serums were distributed separately in 100 μL aliquots in 1.5 mL microcentrifuge tubes (n=3). To which, 20 μL of ^64Cu-Conjugate2 was added in each 100 μL serum aliquot and mixed thoroughly. From this mixture, a small amount of reaction mixture was taken out using glass capillary tube and immediately spotted on an iTLC plate for analysis as T=0 timepoint (n=3). The rest of the reaction mixtures were incubated at 37° C. for up to 2 hours and small fractions were taken out at 1 hour and 2 hours post incubation to analyze the stability of ^64Cu-Conjugate 2 over time using radioactive thin layer chromatography (r-TLC). To do r-TLC analysis, iTLC (silica gel coated on paper, Agilent Technologies Inc., Santa Clara, CA) was used as a solid phase and 0.1M sodium citrate as a mobile phase. In this r-TLC condition, unconjugated (free)^64Cu moves to the solvent front of the r-TLC and radiolabeled ^64Cu-Conjugate 2 stays at the origin of the r-TLC plate. Based on the relative % of radioactivity at origin and at the solvent front, the % of intact ^64Cu-Conjugate2 and free ^64Cu was measured as presented in Tables 35 and 36.

NC(=O)CN1CCN(CC(N)=O)CCN(CC(N)=O)C(Cc2ccc(NC(=S)NCCN(CCNC(=S)Nc3ccc(CC4CN(CC(=O)O)CCN(CC(=O)O)CCN4CC(=O)O)cc3)C(=O)Cc3ccc(NC(=S)NCCCC[C@H](NC(=O)N[C@@H](CCC(=O)O)C(=O)O)C(=O)O)cc3)cc2)CN(CC(N)=O)CC1 (some centres unmarked) [^64Cu-Conjugate 2, metal not drawn]
% of ROI, Rgn 1 (origin, radiolabeled conjugate) ([1]; 40 minutes): 99.62% | % of ROI, Rgn 2 (solvent front, free ^64Cu) ([1]; 40 minutes): 0.38% | % of ROI, Rgn 1 (origin, radiolabeled conjugate) ([1]; 2 hours): 99.40% | % of ROI, Rgn 2 (solvent front, free ^64Cu) ([1]; 2 hours): 0.60% | % of ROI, Rgn 2 (solvent front, free ^64Cu) ([1]; 4 hours): 0.36% | % of ROI, Rgn 1 (origin, radiolabeled conjugate) ([1]; 8 hours): 99.19% | % of ROI, Rgn 2 (solvent front, free ^64Cu) ([1]; 8 hours): 0.81% | % Conc. of main HPLC peak ([2]; 40 minutes, Table 23 trace, peak at Ret. Time 9.335): 99.894% | % Conc. of main HPLC peak ([2]; 40 minutes, Table 24 trace, peak at Ret. Time 8.609): 98.297% | % Conc. of main HPLC peak ([2]; 2 hours, Table 25 trace, peak at Ret. Time 9.298): 99.770% | % Conc. of main HPLC peak ([2]; 2 hours, Table 26 trace, peak at Ret. Time 8.572): 98.718% | % Conc. of main HPLC peak ([2]; 4 hours, Table 27 trace, peak at Ret. Time 9.286): 99.463% | % Conc. of main HPLC peak ([2]; 4 hours, Table 28 trace, peak at Ret. Time 8.555): 98.453% | % Conc. of main HPLC peak ([2]; 8 hours, Table 29 trace, peak at Ret. Time 9.359): 99.107% | % Conc. of main HPLC peak ([2]; 8 hours, Table 30 trace, peak at Ret. Time 8.562): 98.173% | Site of accumulation in PET image [3]: accumulates in proximal tubules in the kidney | Intact (%), Average (in vitro): 98.26% | Stability in mouse serum (in words) (in vitro): stable up to 2 hours in mouse serum | remaining at 1 h (in vitro; mouse, serum): 96.8% | remaining at 2 h (in vitro; mouse, serum): 97.6%
